Experimental data reported in PMC6382702.

Tested on: T1, CagR (Streptomyces clavuligerus F613-1), ORF:155d736f
T1 sequence: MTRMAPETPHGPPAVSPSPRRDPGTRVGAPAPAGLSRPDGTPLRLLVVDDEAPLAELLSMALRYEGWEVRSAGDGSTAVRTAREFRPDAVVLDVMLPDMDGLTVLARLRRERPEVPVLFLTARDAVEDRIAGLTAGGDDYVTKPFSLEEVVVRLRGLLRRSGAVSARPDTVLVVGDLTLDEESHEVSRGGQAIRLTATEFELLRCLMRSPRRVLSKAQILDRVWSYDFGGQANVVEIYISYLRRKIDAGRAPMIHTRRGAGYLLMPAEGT
Assay: EMSA
Conditions: EMSA with 3.0 ug His-CagR and polydI/dC (1.0 mg as printed); buffer, pH and temperature not given (as in Zhang et al., 2015)

Sequence: CGACGCGCTCGGTCACAGGAATCTCCTTACGATGCATGCGGTGATGGAATAAGTATGCACTCGCCCGCATGTTTCGTCAATCATGGGTGCGCGATCGGTGCGTCCGACCGAAAGTGATCGGACGCTTACGCCATGGAGCGGCGCGCTGAACGCGTCGACGGAGGAATCCCCGGGGCCGTCGGACAGCGGCAGGGGTCTTCCGCACGGCGGCGGCCCGCCGCGGCATGCCGCAGGCCCCCGGCCGAGAGGGCCGGGGGCCTGCGGGGGTGGCGGCGCCGCGCCGGAGGGCCGGTCAGGCC (double strand) [argG upstream region (P2)]
- binding: binds
